Consider 22 molecules from patent US20220041658A1 (PROTAGONIST THERAPEUTICS, published 2022).

Starred links: 1 amine or outer side, 2 acyl side, 3 side chain; linkers in the order of their positions; H or OH if unused. Positions of bridges follow the written chain, without caps; N, C: chain ends. Non-standard residues stand in square brackets, D forms with d. Trp(6-Et) = 6-ethyl-tryptophan, CCc1ccc2c(C[C@H](N[*:1])C(=O)[*:2])c[nH]c2c1; Trp(7-Me) = Cc1cccc2c(C[C@H](N)C(=O)O)c[nH]c12; 2Nal = N[C@@H](Cc1ccc2ccccc2c1)C(=O)O; AEF = NCCOc1ccc(C[C@H](N)C(=O)O)cc1; Pen = CC(C)(S)[C@H](N)C(=O)O; αMeK = C[C@](N)(CCCCN)C(=O)O; Abu = CC[C@H](N)C(=O)O Where only a bound is given, the exact number is not on record here.

Experiment [1] concerns the target T1, interleukin-23 receptor (IL-23R) (human, UniProt Q5VWK5 24-629).
T1 sequence (looked up): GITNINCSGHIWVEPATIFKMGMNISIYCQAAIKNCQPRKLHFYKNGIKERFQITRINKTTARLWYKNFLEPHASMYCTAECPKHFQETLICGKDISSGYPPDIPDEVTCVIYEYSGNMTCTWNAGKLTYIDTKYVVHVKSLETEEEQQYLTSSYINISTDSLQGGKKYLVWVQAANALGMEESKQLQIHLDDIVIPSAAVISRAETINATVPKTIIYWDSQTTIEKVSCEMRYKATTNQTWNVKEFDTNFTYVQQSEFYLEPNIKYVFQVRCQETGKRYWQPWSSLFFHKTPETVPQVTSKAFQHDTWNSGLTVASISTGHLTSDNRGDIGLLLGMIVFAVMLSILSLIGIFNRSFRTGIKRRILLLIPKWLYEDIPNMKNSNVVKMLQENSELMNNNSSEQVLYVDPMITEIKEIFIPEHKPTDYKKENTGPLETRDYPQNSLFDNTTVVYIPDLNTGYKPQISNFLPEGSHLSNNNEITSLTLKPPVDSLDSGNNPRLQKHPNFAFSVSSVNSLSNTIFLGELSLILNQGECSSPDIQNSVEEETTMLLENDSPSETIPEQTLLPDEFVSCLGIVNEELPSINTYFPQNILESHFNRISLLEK
The experiment can be described thus: cell-based or functional assay.

Experiment [2] concerns the target T1, interleukin-23 receptor (IL-23R). The experiment can be described thus: cell-based or functional assay. The source holds these as a separate data set.

B1: Peptide of SEQ ID NO: 212 (peptide)
peptide: XNTXQXXXXKPX
modifications: Ac-[Pen]-NT-[W(7-Me)]-Q-[Pen]-Phe[4-(2-aminoethoxy)]-[2-Nal]-[a-MeLeu]-[Lys(Ac)]-[(D)Pro]-[bA]-NH2; Pen-Pen disulfide
Take B1: in experiment [1], the “pStat3 HTRF IC50” value is 36.5 nM. Also, the “NK Cell Assay IC50” value in experiment [2] was 157 nM.

B2: Peptide of SEQ ID NO: 356 (peptide)
peptide: XNTXKXXXXXNL
modifications: Ac-[Pen]-N-T-[W(7-Me)]-[Lys(Ac)]-[Pen]-Phe[4-(2-aminoethoxy)]-[2-Nal]-[a-MeLys]-[Lys(IVA)]-N-[(D)Leu]-NH2; Pen-Pen disulfide
Take B2: in experiment [1], the “pStat3 HTRF IC50” value turned out to be 0.193 nM. Also, the “NK Cell Assay IC50” value in experiment [2] came out at 4.01 nM.

B3: Peptide of SEQ ID NO: 362 (peptide)
peptide: XNTXKXXXXXNL
modifications: Ac-[Pen]-N-T-[W(7-Me)]-[Lys(Ac)]-[Pen]-Phe[4-(2-aminoethoxy)]-[2-Nal]-[a-MeLys]-[Lys(PEG3-OMe)]-N-[(D)Leu]-NH2; Pen-Pen disulfide
Regarding B3, in experiment [1], the “pStat3 HTRF IC50” value turned out to be 0.107 nM. In addition, the “NK Cell Assay IC50” value in experiment [2] was 3.81 nM.

B4: Peptide of SEQ ID NO: 213 (peptide)
peptide: XNTXQXXXXKFX
modifications: Ac-[Pen]-NT-[W(7-Me)]-Q-[Pen]-Phe[4-(2-aminoethoxy)]-[2-Nal]-[a-MeLeu]-[Lys(Ac)]-[(D)Phe]-[bA]-NH2; Pen-Pen disulfide
B4: in experiment [1], the “pStat3 HTRF IC50” value stood at 35.5 nM. The “NK Cell Assay IC50” value in experiment [2] is 60 nM.

B5: Peptide of SEQ ID NO: 316 (peptide)
peptide: XNTXXXXXXKNL
modifications: not fully specified; Ac-[Pen]-N-T-[W(7-Me)]-[Lys(cyclohexyl)]-[Pen]-Phe[4-(2-aminoethoxy)]-[2-Nal]-[a-MeLys]-[Lys(Ac)]-N-[(D)Leu]-NH2; Pen-Pen disulfide
B5: the “pStat3 HTRF IC50” value in experiment [1] was 5.6 nM.

B6: Peptide of SEQ ID NO: 361 (peptide)
peptide: XNTXKXXXXXNL
modifications: Ac-[Pen]-N-T-[W(7-Me)]-[Lys(Ac)]-[Pen]-Phe[4-(2-aminoethoxy)]-[2-Nal]-[a-MeLys]-[Lys(valeric)]-N-[(D)Leu]-NH2; Pen-Pen disulfide
Take B6: the “pStat3 HTRF IC50” value in experiment [1] worked out at 0.596 nM. Besides, the “NK Cell Assay IC50” value in experiment [2] was found to be 1.47 nM.

In the case of Ac-[Pen]NT[Trp(7-Me)]K(Ac)[Pen][His_Bzl][2Nal][αMeK]K(Ac)N[dL]-NH2 (disulfide 1-6 (inferred)) [Peptide of SEQ ID NO: 293], the “pStat3 HTRF IC50” value in experiment [1] turned out to be 224 nM.

B7: Peptide of SEQ ID NO: 210 (peptide)
peptide: XNTXQXXXXKLX
modifications: Ac-[Pen]-NT-[W(7-Me)]-Q-[Pen]-Phe[4-(2-aminoethoxy)]-[2-Nal]-[a-MeLeu]-[Lys(Ac)]-[(D)Leu]-[bA]-NH2; Pen-Pen disulfide
As for B7, the “pStat3 HTRF IC50” value in experiment [1] was found to be 66.1 nM. For the same molecule, the “NK Cell Assay IC50” value in experiment [2] is greater than 500 nM. Regarding Ac-[Pen]NT[Trp(6-Et)]K(Ac)[Pen][AEF][2Nal][αMeK]K(Ac)N[dK]-NH2 (disulfide 1-6 (inferred)) [Peptide of SEQ ID NO: 349], the “pStat3 HTRF IC50” value in experiment [1] came to 12.7 nM. In addition, the “NK Cell Assay IC50” value in experiment [2] came out at 45.5 nM.

B8: Peptide of SEQ ID NO: 357 (peptide)
peptide: XNTXKXXXXXNL
modifications: not fully specified; Ac-[Pen]-N-T-[W(7-Me)]-[Lys(Ac)]-[Pen]-Phe[4-(2-aminoethoxy)]-[2-Nal]-[a-MeLys]-[Lys(cyclohexyl)]-N-[(D)Leu]-NH2; Pen-Pen disulfide
Take B8: in experiment [1], the “pStat3 HTRF IC50” value is 0.331 nM. Besides, the “NK Cell Assay IC50” value in experiment [2] is 3.8 nM.

B9: Peptide of SEQ ID NO: 360 (peptide)
peptide: XNTXKXXXXXNL
modifications: Ac-[Pen]-N-T-[W(7-Me)]-[Lys(Ac)]-[Pen]-Phe[4-(2-aminoethoxy)]-[2-Nal]-[a-MeLys]-[Lys(trifluoropropionic)]-N-[(D)Leu]-NH2; Pen-Pen disulfide
Take B9: the “pStat3 HTRF IC50” value in experiment [1] turned out to be 0.568 nM. Further, in experiment [2], the “NK Cell Assay IC50” value was determined as 1.1 nM. Ac-[dR][Abu]QT[Trp(7-Me)]K(Ac)C[AEF][2Nal][αMeK]K(Ac)N[dL]-NH2 (thioether 2-7 (inferred)) [Peptide of SEQ ID NO: 325]: the “pStat3 HTRF IC50” value in experiment [1] worked out at 4.45 nM. Moreover, in experiment [2], the “NK Cell Assay IC50” value is 12.7 nM.

B10: Peptide of SEQ ID NO: 202 (peptide)
peptide: XNTXQXXXXKNX
modifications: Ac-[Pen]-NT-[W(7-Me)]-Q-[Pen]-Phe[4-(2-aminoethoxy)]-[2-Nal]-[a-MeLys]-[Lys(Ac)]-N-[bA]-NH2; Pen-Pen disulfide
Take B10: in experiment [1], the “pStat3 HTRF IC50” value was 1.1 nM. Also, the “NK Cell Assay IC50” value in experiment [2] turned out to be 3.49 nM.

B11: Peptide of SEQ ID NO: 214 (peptide)
peptide: XNTXQXXXXKHX
modifications: Ac-[Pen]-NT-[W(7-Me)]-Q-[Pen]-Phe[4-(2-aminoethoxy)]-[2-Nal]-[a-MeLeu]-[Lys(Ac)]-H-[bA]-NH2; Pen-Pen disulfide
Take B11: the “pStat3 HTRF IC50” value in experiment [1] turned out to be 1.53 nM. The “NK Cell Assay IC50” value in experiment [2] amounted to 6.3 nM.

B12: Peptide of SEQ ID NO: 208 (peptide)
peptide: XNTXQXXXXKLX
modifications: Ac-[Pen]-NT-[W(7-Me)]-Q-[Pen]-Phe[4-(2-aminoethoxy)]-[2-Nal]-[a-MeLeu]-[Lys(Ac)]-L-[bA]-NH2; Pen-Pen disulfide
For B12, in experiment [1], the “pStat3 HTRF IC50” value was 5.39 nM. In addition, the “NK Cell Assay IC50” value in experiment [2] came out at 7.8 nM.

B13: Peptide of SEQ ID NO: 201 (peptide)
peptide: XNTXQXXXXKNX
modifications: Ac-[Pen]-NT-[W(7-Me)]-Q-[Pen]-Phe[4-(2-aminoethoxy)]-[2-Nal]-[a-MeLeu]-[Lys(Ac)]-N-[bA]-NH2; Pen-Pen disulfide
Turning to B13, the “pStat3 HTRF IC50” value in experiment [1] was 1.05 nM. Moreover, the “NK Cell Assay IC50” value in experiment [2] was determined as 3.06 nM.

Consider Ac-[Pen]NT[Trp(7-i-Pr)]K(Ac)[Pen][AEF][2Nal][αMeK]K(Ac)N[dL]-NH2 (disulfide 1-6 (inferred)) [Peptide of SEQ ID NO: 286], for which the “pStat3 HTRF IC50” value in experiment [1] was 1.61 nM.

B14: Peptide of SEQ ID NO: 354 (peptide)
peptide: XNTXKXXXXKNN
modifications: Ac-[Pen]-N-T-[W(7-Me)]-[Lys(Ac)]-[Pen]-Phe[4-(2-aminoethoxy)]-[2-Nal]-[a-MeLeu]-[Lys(Ac)]-N-[(D)Asn]-NH2; Pen-Pen disulfide
Regarding B14, in experiment [1], the “pStat3 HTRF IC50” value worked out at 0.283 nM. Besides, the “NK Cell Assay IC50” value in experiment [2] amounted to 1.62 nM.

B15: Peptide of SEQ ID NO: 315 (peptide)
peptide: XNTXXXXXXKNL
modifications: Ac-[Pen]-N-T-[W(7-Me)]-[Lys(IVA)]-[Pen]-Phe[4-(2-aminoethoxy)]-[2-Nal]-[a-MeLys]-[Lys(Ac)]-N-[(D)Leu]-NH2; Pen-Pen disulfide
On to B15, for which the “pStat3 HTRF IC50” value in experiment [1] worked out at 1.41 nM.

B16: Peptide of SEQ ID NO: 207 (peptide)
peptide: XNTXQXXXXKAX
modifications: Ac-[Pen]-NT-[W(7-Me)]-Q-[Pen]-Phe[4-(2-aminoethoxy)]-[2-Nal]-[a-MeLeu]-[Lys(Ac)]-A-[bA]-NH2; Pen-Pen disulfide
Consider B16, for which the “pStat3 HTRF IC50” value in experiment [1] amounted to 1.46 nM. In addition, the “NK Cell Assay IC50” value in experiment [2] was 8.4 nM.

B17: Peptide of SEQ ID NO: 320 (peptide)
peptide: XNTXXXXXXKNL
modifications: Ac-[Pen]-N-T-[W(7-Me)]-[Lys(Gly)]-[Pen]-Phe[4-(2-aminoethoxy)]-[2-Nal]-[a-MeLys]-[Lys(Ac)]-N-[(D)Leu]-NH2; Pen-Pen disulfide
Regarding B17, the “pStat3 HTRF IC50” value in experiment [1] is 0.632 nM. The “NK Cell Assay IC50” value in experiment [2] is 3.35 nM.

B18: Peptide of SEQ ID NO: 317 (peptide)
peptide: XNTXXXXXXKNL
modifications: Ac-[Pen]-N-T-[W(7-Me)]-[Lys(octanoic)]-[Pen]-Phe[4-(2-aminoethoxy)]-[2-Nal]-[a-MeLys]-[Lys(Ac)]-N-[(D)Leu]-NH2; Pen-Pen disulfide
As to B18, the “pStat3 HTRF IC50” value in experiment [1] amounted to 13 nM.
